# Test results published in the RNAGym collection of RNA variant scans (doi:10.1073/pnas.2313332121).
# B1: TPR t1 (parent)
# chain: GACCAAUCUGCCCUCAGAGCUCGAGAACAUCUUCGGAUGCAGAGGAGGCAGGCUUCGGUGGCGCGAUAGCGCCAACGUCCUCAACCUCCAAUGCAUCCCACCACAUGAUGAUGCCUGAAGAGCCUUGGUUUUUUG
# Variants of: B1
# Test: polymerase ribozyme fitness, log enrichment relative to wild type (log ratio); higher = more active; in vitro selection for triplet polymerase activity
# Procedure, shortened: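 Each subunit of a heterodimeric triplet polymerase ribozyme was mutagenized into a library by PCR, transcribed, and subjected to one round of in vitro selection, run in triplicate. Libraries were annealed with a biotinylated primer, the partner subunit and triplets, incubated frozen at −7 °C, and extended constructs were gel-excised, captured on streptavidin beads and recovered by RT-PCR. Input and output libraries were sequenced on Illumina, keeping genotypes with ≥10 input reads and ≥1 read per output. Fitness is log base 2 of genotype enrichment divided by wild-type enrichment, from inverse-variance-weighted replicate averages.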
row,Variant,polymerase ribozyme fitness (log ratio)
1,A26G C70U,-2.78
2,A27G C40G,-1.89
3,A27U C86A,-3.77
4,A27U C86G,-3.66
5,A26U C114U,-5.07
6,A26U C114A,-3.87
7,A27U U38C A46U G48A G69U G110U C114U A119G,-6.11
8,C28G C73U,-2.15
9,C28G C72A C102G G107A,-7.59
10,A26U U54C U133A,-4
11,G25A C72G,-5.55
12,A24G A119U,-2.54
13,A24G G71C G120U,-2.78
14,A27U C70U C73G A84G C89G C114G,-6.4
15,G25U C72U,-6.27
16,C28A G39U A43G C56U G61U C64G G120C,-6.64
17,A27U G122A,-4.26
18,A27U C40A C70A,-6.74
19,A24G G36C C49A G63U,-4.77
20,G25U A26G C64U,-2.74
21,G25U C56G U81G A121G C124U,-5.96
22,A27G A41U C64U,-3.32
23,C28G G63A G93U C114A A118C,-7.47
24,A27G G61C C88G G128A,-7.26

row,Variant,polymerase ribozyme fitness (log ratio)
1,C28G G48A A83C A84C,-3.22
2,A26G U129C,-2.73
3,C28G G61A,-2.51
4,C28G C82U,-2.1
5,C28G A95U U125A,-3.63
6,A27G U96G C99G U129A,-6.24
7,G25U C34U G63C G93C G117C A121C G122A G127U,-6.74
8,A26C A43C A46C C56G C86A A90G C123G,-6.74
9,A24G G47A C73A,-1.58
10,A26U G39A C49G G61A C88U C124G,-3.77
11,A24G A41G C88U U92A U112A U131C,-3.58
12,A26C C34A C56A C94G A111U,-7
13,A27C C49U G61U U92C,-6.24
14,A27G G52A C56U,-2.59
15,A27U G63C G71A C82G G113A U129A,-5.8
16,A24G G51A U78C,-6.04
17,A27U A29C,-4.78
18,C28A C97U G110C,-1.97
19,A27G C86U,-2.44
20,A26U G44C G48C C101A A111G U112A C124A,-8.24
21,A24G A46U C72G G93C G120U C124U,-5.77
22,C28A C79A A111C U112G,-6.04
23,A26U A29G,-4.77
24,A24U C72G,-5.64

row,Variant,polymerase ribozyme fitness (log ratio)
1,A26U C62G,-4.89
2,A26U A46C A90G U106A G127C,-2.32
3,G25A G60C,-7.2
4,A26G G71C C79G,-3.86
5,G25C C31G C34U A43C U112C,-6.28
6,A27G A46U G77U U78A,-3.31
7,A27C C62U C94U,-2.79
8,A27G A50C A111U,-3.29
9,G25U C56U C72G C123G,-6.31
10,C28A U112A,-1.21
11,A24U G35C C49A G63A A111G C124U G135A,-6.36
12,A26U C82G,-4.82
13,G25A A66U C70G G110C,-6.93
14,A27U G48U A50U C123U,-2.86
15,A24U G61C,-7.27
16,A27U C72U,-3.48
17,A27U G135U,-4.15
18,A26U C62U G71C G93A G120U,-3.6
19,C28G A111G,-4.41
20,C28A C70U,-4.86
21,A27U A83U G128C,-6.05
22,A27U G44C G47C U112A,-3.34
23,A27C C94U,-3.16
24,A24C G120A,-4.02

row,Variant,polymerase ribozyme fitness (log ratio)
1,G25U,-5.58
2,G25A,-4.68
3,G25C,-5.94
4,A26U C70U,-4.13
5,A26U C70A,-5.16
6,A24G A46G G57U A100C,-4
7,A27U G71U G93U,-5.1
8,A27C U87A A91G,-4.73
9,G25A C40U G93C C101U C104G C115U A118G,-6.52
10,A27U C114A,-3.53
11,A24G C114G,-3.83
12,A26U A119G,-2.12
13,A24G G42U G60U C88G A121G,-1.74
14,G25C A29G U33C G60A C98U G113C,-7.69
15,A26G G48A G63U C101G,-4.73
16,A27C C82U C124A,-0.986
17,C28G G110U C124U,-0.355
18,A27C A43C C114U,-4.33
19,A26U G44A G48U C82U G122A,-6.34
20,A27U G47U,-2.07
21,A27G C85A,-3.2
22,C28G A46U,-3.8
23,A24C A37C A121U,-6.59
24,A27G G93C C104U,-3.11

row,Variant,polymerase ribozyme fitness (log ratio)
1,A26U C72G C97G G117U U125A,-6.79
2,A26U G39U G60C U78C G117C,-6.27
3,A26G C62U C80G G110C,-7.8
4,A27U U81C U132C,-4.09
5,A26G A84G G120A,-2.95
6,A26G C82A G113A A119U G120C,-3.14
7,A26U G135A,-3.67
8,A26U G69A U78G U106A,-4.44
9,C28A C56U,-2.94
10,A26G A50G C56G C82G,-3.42
11,A24G G48A A83G,-2.89
12,A26U G61U U112C,-2.62
13,C28A C73A,-4.02
14,A26G G42C C72A,-5.15
15,A26G G42C,-4.99
16,A27U G71A U96A U109A,-6.15
17,G25C A26G C28A C72A G110A,-5.56
18,C28G C53A C72A,-3.19
19,A26U U96A C114U G117A,-5.98
20,A26C U106G,-6.98
21,A27G G45A,-2.35
22,G25A A121U,-2.9
23,A26U G42U G69C C72A C79U G110C,-7.46
24,A27G G57U,-2.3

row,Variant,polymerase ribozyme fitness (log ratio)
1,A27G A46G C89G,-4.52
2,A27U U54C G71U C98A U132C,-6.73
3,A24C G63A,-6.87
4,A26G G71A,-2.97
5,A27G A29C G36A A46C C72G U106C U112G U116A,-7.34
6,A26G G69U,-2.23
7,A26G C53G G77A,-2.93
8,A24U C53G C72U C89A C124A,-7.6
9,G25U C76A G113C,-5.51
10,A27C A43G,-5.95
11,A26U C124U,-2.17
12,A27U G60U G128A,-4.65
13,A27U A105U,-4.58
14,C28G G77U,-3.74
15,A27G C40U G61C,-4.06
16,A26G G69A A91U U133G,-6.73
17,A24G U54G G57C C124U,-2.01
18,A27U U54A A75U U78C G127C,-6.04
19,A24G C82G,-1.98
20,A27U,-2.89
21,A27G,-1.52
22,A27C,-2.85
23,A26G C49U G63A A84C,-4.24
24,A27U C40U C72G A100C,-7.09

row,Variant,polymerase ribozyme fitness (log ratio)
1,A24G U96G C102A,-5.25
2,A24U A83U,-7.24
3,A27G U55A G77C A95C,-4.8
4,C28A C86U A111U,-2.22
5,A24C G65A C85A C101G G113C,-6.86
6,A24G G48A C64U,-2.39
7,A27C G61A,-4.32
8,A24U A83U C94U A111C G122A,-6.94
9,A27G C53U C72A C102U,-3.85
10,A27U G39C G120U,-2.78
11,A27G C49U C76G,-2.99
12,A27C U78G U125A,-4.05
13,G23U G42A A46U G69U U109A C123U,-5.99
14,A27C C28G,-4
15,A27C C28U,-5.13
16,C28A A41U C53G C104G G110A,-6.89
17,C28A A43U C86G,-5.44
18,A24U A43C G60C A84U G110C U129A,-6.86
19,A27G G45U U96G G120U,-3.04
20,G25C C70G G107A A111U U129G,-7.14
21,G25C C53U,-5.22
22,G25C C53G,-6.8
23,A24G G60C C79A G122A,-5.59
